We go through eight molecules from patent US20260193375A1 (NORMUNITY, published 2026).

In experiment [1] the target is T1, cell-surface anchored LY6K (human, UniProt Q17RY6 18-138).
T1 construct: the cell is named under assay; also called LY6K on target cells
T1 sequence: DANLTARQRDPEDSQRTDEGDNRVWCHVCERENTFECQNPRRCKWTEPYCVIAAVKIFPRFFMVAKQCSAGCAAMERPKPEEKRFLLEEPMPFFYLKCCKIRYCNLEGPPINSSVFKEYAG
Nature of the experiment: IHC, paraffin sections of 293 cells overexpressing LY6K.

For experiment [2], the target named is T2, cynomolgus monkey LY6K (R&D Systems) (cynomolgus monkey).
T2 construct: also called cyLY6K
Nature of the experiment: ELISA, coated antigen, IgG1 at 10 ug/ml. (In an ELISA, binding on a coated surface is turned into a signal by an enzyme label.)

For the next experiment, the target named is T3, Human LY6K (R&D Systems) (human, UniProt Q17RY6 18-138, limits assumed).
T3 construct: Bought from R&D Systems, coated on ELISA plates; also called hLY6K
T3 sequence: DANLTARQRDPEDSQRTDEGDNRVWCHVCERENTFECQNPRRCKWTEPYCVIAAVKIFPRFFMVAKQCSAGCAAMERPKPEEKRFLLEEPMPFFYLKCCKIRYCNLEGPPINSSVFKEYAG
Nature of the experiment: ELISA, coated antigen, IgG1 at 10 ug/ml.

In experiment [3] the target is T4, human LY6E (R&D Systems) (human, UniProt Q16553 21-101, limits assumed).
T4 construct: also called hLY6E
T4 sequence (looked up): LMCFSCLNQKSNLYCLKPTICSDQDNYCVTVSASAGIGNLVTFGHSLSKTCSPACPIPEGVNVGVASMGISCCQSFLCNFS
Nature of the experiment: ELISA, coated antigen, IgG1 at 10 ug/ml.

The target of the next experiment is T5, rat LY6K (R&D Systems) (rat).
T5 construct: also called rLY6K
Nature of the experiment: ELISA, coated antigen, IgG1 at 10 ug/ml.

In experiment [4] the target is T1, cell-surface anchored LY6K. Nature of the experiment: flow cytometry on target cells, MFI fitted in Prism. Background: Flow cytometry measures light scatter and fluorescence of single cells or particles in a stream.
Experiment [5] deals with T6, recombinant human LY6K (Wuxi) (human, UniProt Q17RY6 18-138).
T6 construct: Limits of the construct not clearly stated; also called Human LY6K (Wuxi LY^KGLY138(1-38TR)_8His)
T6 sequence: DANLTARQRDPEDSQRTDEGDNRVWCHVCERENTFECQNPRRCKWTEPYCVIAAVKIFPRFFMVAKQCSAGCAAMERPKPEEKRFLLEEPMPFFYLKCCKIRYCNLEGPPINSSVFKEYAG
Nature of the experiment: ELISA, LY6K coated at 2 ug/mL, HRP-labelled mAb titrated.

For a further experiment, the target named is cyLY6K-mFc (cynomolgus monkey). Nature of the experiment: SPR (Carterra LSA), mAb captured on anti-human IgG-Fc, antigen as analyte.
Another experiment addresses T7, hLY6K-his (human, UniProt Q17RY6 18-138, limits assumed).
T7 construct: not shown: his tag
T7 sequence: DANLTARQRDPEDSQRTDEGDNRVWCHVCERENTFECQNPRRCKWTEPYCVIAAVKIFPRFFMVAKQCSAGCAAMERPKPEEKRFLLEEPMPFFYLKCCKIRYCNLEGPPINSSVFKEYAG
The description is as above.

The target in another experiment is T8, hLY6K-mFc (human, UniProt Q17RY6 18-138).
T8 construct: not shown: mFc
T8 sequence: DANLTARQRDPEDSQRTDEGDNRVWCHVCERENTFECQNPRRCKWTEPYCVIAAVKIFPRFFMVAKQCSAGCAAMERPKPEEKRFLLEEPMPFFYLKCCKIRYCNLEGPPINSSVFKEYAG
The experiment is described as above.

Experiment [6] concerns the target T6, recombinant human LY6K (Wuxi). Nature of the experiment: capture ELISA (MSD): antibody coated as capture at 2 µg/mL, recombinant human LY6K titrated, sulfo-tagged polyclonal anti-hLY6K (AF6648) for detection; EC50 is the LY6K concentration.
Experiment [7] addresses T4, human LY6E (R&D Systems). Nature of the experiment: ELISA, antigen coated on the plate, antibody as human IgG1, anti-human F(ab)2 HRPO.
The target in a further experiment is T9, Ly6H.
T9 chain: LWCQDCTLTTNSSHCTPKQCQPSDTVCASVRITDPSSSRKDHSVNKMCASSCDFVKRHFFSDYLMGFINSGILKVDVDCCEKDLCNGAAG
Described as above.

A further experiment addresses T10, Ly6D.
T10 chain: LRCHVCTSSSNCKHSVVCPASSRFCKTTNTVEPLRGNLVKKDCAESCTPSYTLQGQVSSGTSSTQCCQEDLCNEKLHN
Described as above.

Experiment [8] addresses T1, cell-surface anchored LY6K. Nature of the experiment: flow cytometry on target cells, MFI fitted in Prism; flow cytometry, live target cells, 4 degrees C.

B1: anti-LY6K antibody 3704 (antibody, V domains shown)
VH: EVQLVESGGGLVQPGRSLRLSCAASGFTFDDYAMHWVRQAPGKGLEWVSGISWKIITIGYADSVKGRFTISRDNVKNSLYLQMNSLRAEDTALYYCAKDSRTGLDYWGQGTLVTVSS
VL: DIQMTQSPSSLSASVGDRVTITCRASQTISSYLNWYQQKPGKAPKLLIYAASSLQSGVPSRFSGSGSGTDFTLTISSLQPEDFATYYCQQTYTAPLTFGPGTKVDIK
On to B1, for which, in experiment [1], the binding result was “no binding (tested: 5 ug/ml)”. Also, the “% of maximum of commercial anti-LY6K mAb on human LY6K” value (from here on “% of maximum … on human LY6K”) in [2] is 2%; in the experiment with Human LY6K (R&D Systems), 2.2%; with human LY6E (R&D Systems) [3], 3.2%; in the experiment with rat LY6K (R&D Systems), 0.6%.

B2: anti-LY6K antibody 3724 (antibody, V domains shown)
VH: QLQLQESGPGLVKPSETLSLTCTVSGGSINSKSYYWDWIRQPPGKGLEWIGNIYYSGSTYYNPSLKSRVTISVDTSKNQFSLKLSSVTATDTAVYYCARHRGVTVTTYWYFDLWGRGTLVTVSS
VL: EIVLTQSPDFQSVTPKEKVTITCRASQSIGNSLHWYQQKSDQSPKLLIKYVSQSFSGVPSRFSGSGSGTDFTLTINSLEAEDAATYYCHQSSDFPHTFGQGTKLEIK
Consider B2, for which the binding result in experiment [1] was “no binding (tested: 5 ug/ml)”. The “% of maximum … on human LY6K” value in experiment [2] was 3.2%; in the experiment with Human LY6K (R&D Systems), 6.2%; in the experiment with human LY6E (R&D Systems) [3], 3.9%; with rat LY6K (R&D Systems), 3.3%.

B3: anti-LY6K antibody 2660 (antibody, V domains shown)
VH: EVQLVESGGGLVKPGGSLRLSCAASGFTFSDVWMSWVRQAPGKGLEWVGRIKSKTDGGRIDYAAPVKGRFTISRDDSKNTLYLQMNSLKTEDTAVYYCTTVPYSDYWGQGTLVTVSS
VL: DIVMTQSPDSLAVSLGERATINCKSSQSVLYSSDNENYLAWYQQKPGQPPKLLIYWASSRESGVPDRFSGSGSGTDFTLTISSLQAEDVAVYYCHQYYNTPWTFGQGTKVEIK
For orientation: EC50 means the midpoint of the concentration-response curve. What is called Kd is the constant that tells how readily two partners part at equilibrium. As for B3, the EC50 was 0.364 nM in experiment [4], 1.57 nM in experiment [5] and 0.0756 µg/mL in [6]. Besides, the “% of maximum … on human LY6K” value in [2] was 106%; with Human LY6K (R&D Systems) it was 95.1%; in the experiment with human LY6E (R&D Systems) [3], 3.1%; in the experiment with rat LY6K (R&D Systems) it was -0.1%. Besides, the Kd in the experiment with cyLY6K-mFc worked out at 0.0518 nM; in the experiment with hLY6K-his, 3.59 nM; with hLY6K-mFc, 0.00702 nM. Further, the binding result in the experiment with human LY6E (R&D Systems) [7], with Ly6H and in the experiment with Ly6D was “no binding (tested: 10 µg/ml)” each time.

B4: anti-LY6K antibody 3503 (antibody, V domains shown)
VH: EVQLVESGGGLVKPGGSLRLSCAASGFIFSSYSMNWVRQAPGKGLEWVSSISSSSSYIYYADSEKGRFTISRDNAKNSLYLQMNSLRAEDTAVYYCARQSTVVTSDYYYYYMDVWGKGTTVTVSS
VL: DIQMTQSPSSLSASVGDRVTITCRASQSISNYLNWYQQKPGKAPNLLIYAASSLQSGVPSRFSGSGSGTDFTLTISSLQPEDFATYYCQQSYSPPITFGQGTRLEIK
For the molecule B4, the “% of maximum … on human LY6K” value in experiment [2] worked out at 76.4%; with Human LY6K (R&D Systems), 66.6%; in the experiment with human LY6E (R&D Systems) [3] it was 2.9%; in the experiment with rat LY6K (R&D Systems), 0.7%. Further, the EC50 was 0.576 nM in [8], 2.67 nM in [5] and 0.064 µg/mL in experiment [6]. Moreover, the Kd with cyLY6K-mFc is 0.197 nM; in the experiment with hLY6K-his, 3.49 nM; in the experiment with hLY6K-mFc it was 0.0553 nM. Further, the binding result with human LY6E (R&D Systems) [7], with Ly6H and with Ly6D was “no binding (tested: 10 µg/ml)” throughout.

B5: anti-LY6K antibody 3746 (antibody, V domains shown)
VH: EVQLVESGGGLVKPGGSLRLSCAASGFIFSSYSMNWVRQAPGKGLEWVSSISSSSSYIYYADSEKGRFTISRDNAKNSLYLQMNSLRAEDTAVYYCARQSTVVTSDYYYYYMDVWGKGTTVTVSS
VL: DIQMTQSPSSLSASVGDRVTITCRASQSISNYLNWYQQKPGKAPNLLIYAASSLQSGVPSRFSGSGSGTDFTLTISSLQPEDFATYYCQQSYSPPITFGQGTRLEIK
With B5, the “% of maximum … on human LY6K” value was 78.7% in experiment [2], 76.9% in the experiment with Human LY6K (R&D Systems), 1.2% with human LY6E (R&D Systems) [3] and 3.1% with rat LY6K (R&D Systems). Also, the results for the EC50 in experiment [8] and in experiment [5] were 3.21 nM and 3.04 nM, respectively. In addition, the Kd with cyLY6K-mFc was 0.216 nM; with hLY6K-his it was 2.5 nM; in the experiment with hLY6K-mFc, 0.0362 nM.

B6: anti-LY6K antibody 3507 (antibody, V domains shown)
VH: EVQLVESGGGLVKPGGSLRLSCAASGFTFSSYSMNWVRQAPGKGLEWVSSISSSSDYIYYADSVKGRFTISRDDAKNSLYLQMNSLRAEDTAVYYCARGLEPNYYYYMDVWGKGTTVTVSS
VL: EIVMTQSPGTLSVSPGERATLSCRASQSVSSSYLAWYQQKPGQAPRLLIYGASTRATGIPARFSGSGSGTEFTLTISSLQSEDFAVYYCQQYNNWPLTFGGGTKVEIK
In the case of B6, the binding result in [1] is listed as “no binding (tested: 5 ug/ml)”. For the same molecule, the “% of maximum … on human LY6K” value in [2] is 2.6%; in the experiment with Human LY6K (R&D Systems), 2.6%; with human LY6E (R&D Systems) [3] it was 1.7%; with rat LY6K (R&D Systems), -1.2%.

B7: anti-LY6K antibody 3520 (antibody, V domains shown)
VH: QVQLVQSGSELKKPGASVKVSCKASGYTFTLYAMNWVRQAPGQGLEWMGWINTNTGNPTYAQGFTGRFVFSLDTSVSTAYLQISSLKAEDTAVYYCARTNWNSWGQGTMVTVSS
VL: DIQMTQSPSSLSASVGDRVTITCQASQDISNYLHWFQQKPGKAPKLLIYDASNLETGVPSRFSGSGSGTDFTFTIFSLQPEDIATYYCQHYDNLPLTFGGGTKVEIK
As for B7, the “% of maximum … on human LY6K” value in experiment [2] was determined as 13.6%; in the experiment with Human LY6K (R&D Systems), 61.2%; with human LY6E (R&D Systems) [3], 2.8%; in the experiment with rat LY6K (R&D Systems), 0.7%. For the same molecule, the EC50 in experiment [8] is 3.61 nM; in experiment [5] it was 2.34 nM; in experiment [6] it was 0.536 µg/mL. The Kd with cyLY6K-mFc is 117 nM; in the experiment with hLY6K-his, 31.9 nM; with hLY6K-mFc, 0.373 nM. Moreover, the binding result with human LY6E (R&D Systems) [7], in the experiment with Ly6H and with Ly6D was “no binding (tested: 10 µg/ml)” in each case.

B8: anti-LY6K antibody 3075 (antibody, V domains shown)
VH: QVQLVQSGSELKRPGASVKVSCKASGYTFIRYAMNWVRQAPGQGLEWMGWINTNTGNPTYAQGFTGRFVLSVDTSVSTAYLQISSLKVEDTAVYYCGRPGISSFEYWGQGTLVTVSS
VL: DIQMTQSPSSLSASVGDRVAITCRATQDISNYLDWYQQKPGKAPKLLIYDASNLETGVPSRFSGSGSGTDFTFTINSLQPEDIATYYCQQYDNLPLTFGGGTKVEIK
On to B8, for which the “% of maximum … on human LY6K” value was 16.7% in experiment [2], 58.3% with Human LY6K (R&D Systems), 1.6% with human LY6E (R&D Systems) [3] and 0.7% in the experiment with rat LY6K (R&D Systems). Besides, the EC50 came out at 0.805 nM in experiment [8] and 1.56 nM in experiment [5].
